For test [1], the target named is T1, AP2 α-appendage (residues 695 to 938) (UniProt P17427 695-938).
T1 construct: AP2 α subunit (α2), appendage, residues 695 to 938; also called α2 ear; pGEX4T2α-appendage; source: E. coli BL21 plyS, purified (GST beads, thrombin, Superdex 200)
The test is described as follows: ITC; α-appendage or β2-appendage with C block peptides; 100 mM tris pH 7.4, 150 mM NaCl, 0.25 mM TCEP; 12°C; peptides 1 to 5 mM titrated. The following applies: both partners purified.

For test [2], the target named is T2, Cμ2 (μ2 residues 160 to 435) (UniProt P84092 160-435).
T2 construct: AP2 μ2 subunit, C-terminal subdomain, residues 160 to 435; in the chimera crystals Cμ2 carries an N-terminal His6 tag or a thrombin-cleaved GST tag; also called His6μ2 (residues 160 to 435) wt; isolated Cμ2; source: E. coli BL21 plyS, purified (Ni-NTA, Superdex 200)
T2 sequence (looked up): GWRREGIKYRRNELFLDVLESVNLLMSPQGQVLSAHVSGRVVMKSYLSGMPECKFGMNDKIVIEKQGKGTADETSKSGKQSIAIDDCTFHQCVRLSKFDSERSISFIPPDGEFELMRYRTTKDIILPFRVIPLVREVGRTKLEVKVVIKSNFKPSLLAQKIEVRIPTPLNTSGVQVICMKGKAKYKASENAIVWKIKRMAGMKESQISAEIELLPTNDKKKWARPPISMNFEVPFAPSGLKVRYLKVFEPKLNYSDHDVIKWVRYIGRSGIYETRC
The test is described as follows: ITC; Cμ2 with FCHO2 constructs or peptides; 100 mM tris pH 7.4, 150 mM NaCl, 0.25 mM TCEP; 12°C; Nano ITC. The following applies: both partners purified.

A value given as a limit tells only on which side of the number the result lay.

T1 sequence (P17427 695-938): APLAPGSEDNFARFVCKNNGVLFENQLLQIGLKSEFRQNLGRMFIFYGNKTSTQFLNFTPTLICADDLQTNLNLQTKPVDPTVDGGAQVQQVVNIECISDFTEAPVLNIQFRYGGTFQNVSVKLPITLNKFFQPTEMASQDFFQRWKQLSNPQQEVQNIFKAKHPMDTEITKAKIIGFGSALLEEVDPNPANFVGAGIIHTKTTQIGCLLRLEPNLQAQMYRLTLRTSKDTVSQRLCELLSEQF

B1: FCHO1 C peptide, LES to AAA (peptide, UniProt O14526 426-448, looked up)
peptide: QSEEQVSKNLFGPPAAAAFDHED
In test [1], B1 displayed a Kd of over 500 µM.

B2: FCHO2-N1+N2 EEK mutant (domain or fragment)
chain: NIPDVDAAGYSIAPETNQNDTKENHFYSSSDSDSEDEEPKKYRIEIKPMHPNNSHHTMASLDELKVSIGNITLSPAISRHS
For B2, the “fold reduction of binding against FCHO2-N1+N2 wild type” value in test [2] is 5 fold.

These data come from article PMC9054013, “FCHO controls AP2’s initiating role in endocytosis through a PtdIns(4,5)P2-dependent switch” (Science Advances, 2022).
